This passage reports Kd, koff and kon results from paper PMC12901202.

Common to all, as to experiment: BLI; […]; 300 s association, 300 s dissociation; 10x kinetics buffer; […]; global fit, 1:1 model; […]
The target in assay [1] is SARS-CoV-2 XBB.1.5 RBD, biotinylated (SARS-CoV-2) (UniProt P0DTC2).
Assay [2] addresses SARS-CoV-2 Delta RBD, biotinylated (SARS-CoV-2) (UniProt P0DTC2).
Assay [3] has as its target SARS-CoV-2 BA.2.86 RBD, biotinylated (SARS-CoV-2) (UniProt P0DTC2).
Assay [4] concerns the target SARS-CoV-2 BA.2.12.1 RBD, biotinylated (SARS-CoV-2) (UniProt P0DTC2).
Assay [5] has as its target SARS-CoV-2 BA.5 RBD, biotinylated (SARS-CoV-2) (UniProt P0DTC2).
Assay [6] deals with SARS-CoV-2 Wuhan-Hu-1 RBD, biotinylated (SARS-CoV-2) (UniProt P0DTC2).
The target of assay [7] is SARS-CoV-2 BA.2.75.2 RBD, biotinylated (SARS-CoV-2) (UniProt P0DTC2).
Assay [8] addresses SARS-CoV-2 BQ.1.1 RBD, biotinylated (SARS-CoV-2) (UniProt P0DTC2).

As to “TRI2-2 homotrimeric miniprotein inhibitor (designed binder)”, the Kd in assay [1] was 658 pM; in assay [2] it was 1.14 pM; in assay [3] it was 388 pM; in assay [4], 851 pM; in assay [5], 30.6 pM; in assay [6] it was 1.21 pM. Further, the Kd in assay [7] was 542 pM; in assay [8], 210 pM. Besides, the koff in assay [1] was determined as 0.000105 s⁻¹; in assay [2] it was 2.95e-07 s⁻¹; in assay [3] it was 0.000131 s⁻¹; in assay [4] it was 0.000117 s⁻¹; in assay [5] it was 9.92e-06 s⁻¹; in assay [6] it was 3.46e-07 s⁻¹. Besides, the koff was 8.93e-05 s⁻¹ in assay [7] and 3.36e-05 s⁻¹ in assay [8]. The kon came to 160000 M⁻¹ s⁻¹ in assay [1]; 259000 M⁻¹ s⁻¹ in assay [2]; 339000 M⁻¹ s⁻¹ in assay [3]; 137000 M⁻¹ s⁻¹ in assay [4]; 325000 M⁻¹ s⁻¹ in assay [5]; 286000 M⁻¹ s⁻¹ in assay [6]. Also, the kon in assay [7] was 165000 M⁻¹ s⁻¹; in assay [8], 160000 M⁻¹ s⁻¹.
